These results are taken from article PMC4517315, “Functional properties and structural characterization of rice δ^1-pyrroline-5-carboxylate reductase” (Frontiers in Plant Science, 2015).

The target in data set [1] is T1, rice δ^1-pyrroline-5-carboxylate reductase (Oryza sativa, UniProt Q8GT01).
T1 construct: gene Os01g0948400
The data set can be described thus: product inhibition of purified recombinant enzyme, NADH-dependent P5C reduction at […] nm; Lineweaver-Burk/non-linear regression. In kind it is biochemical.

The target in data set [2] is rice (Oryza sativa L.) δ1-pyrroline-5-carboxylate (P5C) reductase, from pET151-OsP5CR, TEV-cleaved (Oryza sativa (japonica rice)). The data set can be described thus: SEC; gel permeation on Superose 12 HR 10/30, 50 mM Tris-HCl pH 7.75, 250 mM NaCl, 100 uL of protein at 10 mg/mL, calibrated with molecular weight markers; identical elution patterns up to 1 M NaCl (data not shown); size of the oligomer from the apparent mass.

The target in data set [3] is Oryza sativa P5C reductase, from pMCSG68, for crystallization (Oryza sativa (japonica rice)). The data set can be described thus: crystal structure; 3.40 Å, space group P2(1), two decamers in the asymmetric unit; crystals from 100 mM Tris-HCl pH 8.5, 200 mM MgCl2, 18% PEG 8000, 19°C; molecular replacement with a homology model based on PDB 2izz.
Substrate in data set [4]: NC(=O)C1=CN([C@@H]2O[C@H](COP(=O)(O)OP(=O)(O)OC[C@H]3O[C@@H](n4cnc5c(N)ncnc54)[C@H](O)[C@@H]3O)[C@@H](O)[C@H]2O)C=CC1
The data set can be described thus: purified protein. To be noted: P5C binding is required to allow NADH to enter the active site; varied: cofactor.

Substrate in data set [5]: NC(=O)C1=CN([C@@H]2O[C@H](COP(=O)(O)OP(=O)(O)OC[C@H]3O[C@@H](n4cnc5c(N)ncnc54)[C@H](OP(=O)(O)O)[C@@H]3O)[C@@H](O)[C@H]2O)C=CC1
The data set can be described thus: purified protein. To be noted: varied: cofactor.

Substrate in data set [6]: O=C(O)C1CCC=N1
The data set can be described thus: purified protein. In kind it is biochemical, Oryza sativa. To be noted: NADPH P5C binds before NADPH (ordered substrate binding).

`NC(=O)c1ccc[n+]([C@@H]2O[C@H](COP(=O)([O-])OP(=O)(O)OC[C@H]3O[C@@H](n4cnc5c(N)ncnc54)[C@H](OP(=O)(O)O)[C@@H]3O)[C@@H](O)[C@H]2O)c1` [NADP^+]: in data set [1], the Ki (usually a dissociation constant, usually derived from enzyme kinetics or from competition with a known ligand) amounted to 0.00773 ± 0.00069 mM. Still for that read-out and setting: under `O=C(O)[C@@H]1CCCN1` [L-proline] stands 20.2 ± 1 mM.

In the case of “rice (Oryza sativa L.) δ1-pyrroline-5-carboxylate (P5C) reductase, from pET151-OsP5CR, TEV-cleaved (enzyme)”, the stoichiometry N (as a rule, the number of molecules, sites or subunits per partner or assembly) in data set [2] came to 14 subunits. Turning to “Oryza sativa P5C reductase, from pMCSG68, for crystallization (enzyme)”, the stoichiometry N in data set [3] stood at 10 subunits.

B1: rice δ^1-pyrroline-5-carboxylate reductase (Oryza sativa Japonica Group) (protein)
chain: MAAPPQPVPAPAAASPEVFRLGFIGPGNLAESIARGVAASGVLPATAIRTAPHRRPERAEAFSSIGAHILETNAQVVDDSDVIVISVKPQIVRQVLVELKPLLSEEKLLVSIAAGIKMEDLQGWSGHRRFIRVMPNTPSAVGQAASVMCLGEMATENDENRVRSLFSAIGKVWTAEEKYFDAVTGLSGSGPAYIFLAIEAMADGGVAAGLPRDLALGLASQTVLGAATMVNKTGKHPGQLKDMVTSPAGTTITGIQELEKGAFRGTLINAVVAATKRCRELSQS
In the case of B1, the Km (as a rule, the substrate concentration at which the rate is half of its maximum) was determined as 806 ± 89 µM in the data set “purified protein [4]”, 49.4 ± 1.8 µM in the data set “purified protein [5]” and 28.8 ± 1.7 µM in the data set “purified protein [6]”. In addition, the Vmax in “purified protein [4]” is listed as 158.3 ± 13.2 μkat (mg protein)^-1; in the data set “purified protein [5]”, 11.68 ± 0.16 μkat (mg protein)^-1.
